B1: Glypican-1, P35052 (parent)
chain: MELRARGWWLLCAAAALVACARGDPASKSRSCGEVRQIYGAKGFSLSDVPQAEISGEHLRICPQGYTCCTSEMEENLANRSHAELETALRDSSRVLQAMLATQLRSFDDHFQHLLNDSERTLQATFPGAFGELYTQNARAFRDLYSELRLYYRGANLHLEETLAEFWARLLERLFKQLHPQLLLPDDYLDCLGKQAEALRPFGEAPRELRLRATRAFVAARSFVQGLGVASDVVRKVAQVPLGPECSRAVMKLVYCAHCLGVPGARPCPDYCRNVLKGCLANQADLDAEWRNLLDSMVLITDKFWGTSGVESVIGSVHTWLAEAINALQDNRDTLTAKVIQGCGNPKVNPQGPGPEEKRRRGKLAPRERPPSGTLEKLVSEAKAQLRDVQDFWISLPGTLCSEKMALSTASDDRCWNGMARGRYLPEVMGDGLANQINNPEVEVDITKPDMTIRQQIMQLKIMTNRLRSAYNGNDVDFQDASDDGSGSGSGDGCLDDLCSRKVSRKSSSSRTPLTHALPGLSEQEGQKTSAASCPQPPTFLLPLLLFLALTVARPRWR
B2: Serine proteinase inhibitor IA-1, Q7M4T6 (parent)
chain: SAGKFIVIFKNDVSEDKIRETKDEVIAEGGTITNEYNMPGMKGFAGELTPQSLTKFQGLQGDLIDSIEEDGIVTTQ
B3: Citrate synthase, mitochondrial, P00889 (parent)
chain: MALLTAAARLFGAKNASCLVLAARHASASSTNLKDILADLIPKEQARIKTFRQQHGNTVVGQITVDMMYGGMRGMKGLVYETSVLDPDEGIRFRGYSIPECQKMLPKAKGGEEPLPEGLFWLLVTGQIPTEEQVSWLSKEWAKRAALPSHVVTMLDNFPTNLHPMSQLSAAITALNSESNFARAYAEGIHRTKYWELIYEDCMDLIAKLPCVAAKIYRNLYREGSSIGAIDSKLDWSHNFTNMLGYTDAQFTELMRLYLTIHSDHEGGNVSAHTSHLVGSALSDPYLSFAAAMNGLAGPLHGLANQEVLVWLTQLQKEVGKDVSDEKLRDYIWNTLNSGRVVPGYGHAVLRKTDPRYTCQREFALKHLPHDPMFKLVAQLYKIVPNVLLEQGKAKNPWPNVDAHSGVLLQYYGMTEMNYYTVLFGVSRALGVLAQLIWSRALGFPLERPKSMSTDGLIKLVDSK

Variants of: B1
Settings: Homo sapiens; pH 7; 20 °C; Urea; CD; Sodium Phosphate Buffer; transition: 2; structure 4ACR; whole UniProt chain shown

Variant	denaturant midpoint (higher = more stable)
MELRARGWWLLCAAAALVACARGDPASKSRSCGEVRQIYGAKGFSLSDVPQAEISGEHLRICPQGYTCCTSEMEENLAQRSHAELETALRDSSRVLQAMLATQLRSFDDHFQHLLQDSERTLQATFPGAFGELYTQNARAFRDLYSELRLYYRGANLHLEETLAEFWARLLERLFKQLHPQLLLPDDYLDCLGKQAEALRPFGEAPRELRLRATRAFVAARSFVQGLGVASDVVRKVAQVPLGPECSRAVMKLVYCAHCLGVPGARPCPDYCRNVLKGCLANQADLDAEWRNLLDSMVLITDKFWGTSGVESVIGSVHTWLAEAINALQDNRDTLTAKVIQGCGNPKVNPQGPGPEEKRRRGKLAPRERPPSGTLEKLVSEAKAQLRDVQDFWISLPGTLCSEKMALSTASDDRCWNGMARGRYLPEVMGDGLANQINNPEVEVDITKPDMTIRQQIMQLKIMTNRLRSAYNGNDVDFQDASDDGSGSGSGDGCLDDLCSRKVSRKSSSSRTPLTHALPGLSEQEGQKTSAASCPQPPTFLLPLLLFLALTVARPRWR [N79Q N116Q]	5.37 M

Same assay, conditions: Homo sapiens; pH 7.4; Thermal; CD; Sodium Phosphate Buffer; reversible: no; structure 4ACR; whole UniProt chain shown

Variant	Tm	change of melting temperature, mutant - wild type (higher = more stable)
MELRARGWWLLCAAAALVACARGDPASKSRSCGEVRQIYGAKGFSLSDVPQAEISGEHLRICPQGYTCCTSEMEENLAQRSHAELETALRDSSRVLQAMLATQLRSFDDHFQHLLQDSERTLQATFPGAFGELYTQNARAFRDLYSELRLYYRGANLHLEETLAEFWARLLERLFKQLHPQLLLPDDYLDCLGKQAEALRPFGEAPRELRLRATRAFVAARSFVQGLGVASDVVRKVAQVPLGPECSRAVMKLVYCAHCLGVPGARPCPDYCRNVLKGCLANQADLDAEWRNLLDSMVLITDKFWGTSGVESVIGSVHTWLAEAINALQDNRDTLTAKVIQGCGNPKVNPQGPGPEEKRRRGKLAPRERPPSGTLEKLVSEAKAQLRDVQDFWISLPGTLCSEKMALSTASDDRCWNGMARGRYLPEVMGDGLANQINNPEVEVDITKPDMTIRQQIMQLKIMTNRLRSAYNGNDVDFQDASDDGSGSGSGDGCLDDLCSRKVSRKSSSSRTPLTHALPGLSEQEGQKTSAASCPQPPTFLLPLLLFLALTVARPRWR [N79Q N116Q]	66 °C	-3 °C
MELRARGWWLLCAAAALVACARGDPASKSRSCGEVRQIYGAKGFSLSDVPQAEISGEHLRICPQGYTCCTSEMEENLAQRSHAELETALRDSSRVLQAMLATQLRSFDDHFQHLLNDSERTLQATFPGAFGELYTQNARAFRDLYSELRLYYRGANLHLEETLAEFWARLLERLFKQLHPQLLLPDDYLDCLGKQAEALRPFGEAPRELRLRATRAFVAARSFVQGLGVASDVVRKVAQVPLGPECSRAVMKLVYCAHCLGVPGARPCPDYCRNVLKGCLANQADLDAEWRNLLDSMVLITDKFWGTSGVESVIGSVHTWLAEAINALQDNRDTLTAKVIQGCGNPKVNPQGPGPEEKRRRGKLAPRERPPSGTLEKLVSEAKAQLRDVQDFWISLPGTLCSEKMALSTASDDRCWNGMARGRYLPEVMGDGLANQINNPEVEVDITKPDMTIRQQIMQLKIMTNRLRSAYNGNDVDFQDASDDGSGSGSGDGCLDDLCSRKVSRKSSSSRTPLTHALPGLSEQEGQKTSAASCPQPPTFLLPLLLFLALTVARPRWR [N79Q]	66 °C	0 °C

Variants of: B2
Settings: Pleurotus ostreatus; pH 7; Thermal; CD; sodium phosphate 50 mM; whole UniProt chain shown

Variant	Tm	change of melting temperature, mutant - wild type (higher = more stable)
SAGKFIVIFKNDVSEDKIRETKDEVIAEGGTITNEYNMPGMKGFAGELTPQSLTKAQGLQGDLIDSIEEDGIVTTQ [F56A]	46 °C	-13 °C

Variants of: B3
Settings: Sus scrofa; pH 7.5; Thermal; CD; Tris-HCl 5.0 mM; reversible: yes; structure 1CTS; whole UniProt chain shown

Variant	Tm	change of melting temperature, mutant - wild type (higher = more stable)
MALLTAAARLFGAKNASCLVLAARHASASSTNLKDILADLIPKEQARIKTFRQQHGNTVVGQITVDMMYGGMRGMKGLVYETSVLDPDEGIRFRGYSIPECQKMLPKAKGGEEPLPEGLFWLLVTGQIPTEEQVSWLSKEWAKRAALPSHVVTMLDNFPTNLHPMSQLSAAITALNSESNFARAYAEGIHRTKYWELIYEDCMDLIAKLPCVAAKIYRNLYREGSSIGAIDSKLDWSHNFTNMLGYTDAQFTELMRLYLTIHSDHEGGNVSAHTSHLVGSALSDPYLSFAAAMNGLAGPLHGLANQEVLVWLTQLQKEVGKDVSDEKLRDYIWNTLNSGRVVPGYGHAVLRKTDPRYTCQREFALKHLPHDPMFKLVAQLYKIVPNVLLEQGKAKNPWPNVQAHSGVLLQYYGMTEMNYYTVLFGVSRALGVLAQLIWSRALGFPLERPKSMSTDGLIKLVDSK [D402Q]	69 °C	11.1 °C
MALLTAAARLFGAKNASCLVLAARHASASSTNLKDILADLIPKEQARIKTFRQQHGNTVVGQITVDMMYGGMRGMKGLVYETSVLDPDEGIRFRGYSIPECQKMLPKAKGGEEPLPEGLFWLLVTGQIPTEEQVSWLSKEWAKRAALPSHVVTMLDNFPTNLHPMSQLSAAITALNSESNFARAYAEGIHRTKYWELIYEDCMDLIAKLPCVAAKIYRNLYREGSSIGAIDSKLDWSHNFTNMLGYTDAQFTELMRLYLTIHSDHEGGNVSAHTSHLVGSALSDPYLSFAAAMNGLAGPLHGLANQEVLVWLTQLQKEVGKDVSDEKLRDYIWNTLNSGRVVPGYGHAVLRKTDPRYTCQREFALKHLPHDPMFKLVAQLYKIVPNVLLEQGKAKNPWPNVGAHSGVLLQYYGMTEMNYYTVLFGVSRALGVLAQLIWSRALGFPLERPKSMSTDGLIKLVDSK [D402G]	62.5 °C	4.6 °C
MALLTAAARLFGAKNASCLVLAARHASASSTNLKDILADLIPKEQARIKTFRQQHGNTVVGQITVDMMYGGMRGMKGLVYETSVLDPDEGIRFRGYSIPECQKMLPKAKGGEEPLPEGLFWLLVTGQIPTEEQVSWLSKEWAKRAALPSHVVTMLDNFPTNLHPMSQLSAAITALNSESNFARAYAEGIHRTKYWELIYEDCMDLIAKLPCVAAKIYRNLYREGSSIGAIDSKLDWSHNFTNMLGYTDAQFTELMRLYLTIHSDHEGGNVSAHTSHLVGSALSDPYLSFAAAMNGLAGPLGGLANQEVLVWLTQLQKEVGKDVSDEKLRDYIWNTLNSGRVVPGYGHAVLRKTDPRYTCQREFALKHLPHDPMFKLVAQLYKIVPNVLLEQGKAKNPWPNVDAHSGVLLQYYGMTEMNYYTVLFGVSRALGVLAQLIWSRALGFPLERPKSMSTDGLIKLVDSK [H301G]	56 °C	-1.9 °C
MALLTAAARLFGAKNASCLVLAARHASASSTNLKDILADLIPKEQARIKTFRQQHGNTVVGQITVDMMYGGMRGMKGLVYETSVLDPDEGIRFRGYSIPECQKMLPKAKGGEEPLPEGLFWLLVTGQIPTEEQVSWLSKEWAKRAALPSHVVTMLDNFPTNLHPMSQLSAAITALNSESNFARAYAEGIHRTKYWELIYEDCMDLIAKLPCVAAKIYRNLYREGSSIGAIDSKLDWSHNFTNMLGYTDAQFTELMRLYLTIHSDHEGGNVSAHTSHLVGSALSDPYLSFAAAMNGLAGPLRGLANQEVLVWLTQLQKEVGKDVSDEKLRDYIWNTLNSGRVVPGYGHAVLRKTDPRYTCQREFALKHLPHDPMFKLVAQLYKIVPNVLLEQGKAKNPWPNVDAHSGVLLQYYGMTEMNYYTVLFGVSRALGVLAQLIWSRALGFPLERPKSMSTDGLIKLVDSK [H301R]	56.8 °C	-1.1 °C
